Here are results for 1 substance from article PMC7086702.

The assay concerns the target Groundnut bud necrosis virus nucleocapsid (N) protein, full-length, hexa-histidine-tagged (Groundnut bud necrosis virus, strain GBNV-To(K)). As to the kind of experiment: SEC.

Regarding “Groundnut bud necrosis virus nucleocapsid (N) protein, full-length, hexa-histidine-tagged (natural protein)”, the stoichiometry N (usually a count of units in the complex or per binding partner) turned out to be 4.
